Measured values published in the RNAGym collection of RNA variant scans (doi:10.1073/pnas.2313332121).
Fewer inactive variants are shown than the library holds.

B1: TPR 5TU (parent)
chain: GGAUCUUCUCGAUCUAACAAAAAAGACAAAUCUGCCACAAAGCUUGAGAGCAUCUUCGGAUGCAGAGGCGGCAGCCUUCGGUGGCGCGAUAGCGCCAACGUUCUCAACUAUGACACGCAAAACGCGUGCUCCGUUGAAUGGAGUUUAUCAUG

Variants of: B1
Test: polymerase ribozyme fitness, log enrichment relative to wild type (log ratio); higher = more active; in vitro selection for triplet polymerase activity
Summary of the method: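 Both subunits of a heterodimeric triplet polymerase ribozyme were given their own mutant library, built by PCR and transcribed. Each library was annealed with a biotinylated primer, the partner subunit and triplets, incubated frozen at −7 °C, and its extended constructs gel-excised, captured on streptavidin beads and amplified by RT-PCR, all in one round done in triplicate. Fitness is the logarithm of genotype enrichment relative to wild-type enrichment, with replicates averaged by inverse-variance weighting. That logarithm is base 2, and Illumina-sequenced genotypes needed ≥10 input reads and ≥1 read per output.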
In the case of C76A U102G, the “polymerase ribozyme fitness (log ratio)” value is reported as ≤ -4.2.
With C76U G143A the “polymerase ribozyme fitness (log ratio)” value was -1.28.
In the case of C76U G81A, the “polymerase ribozyme fitness (log ratio)” value is reported as 0.573.
With G74A A150U the “polymerase ribozyme fitness (log ratio)” value was -2.61.
In the case of C75U G128A, the “polymerase ribozyme fitness (log ratio)” value is reported as -3.95.
For C75U G128U, the “polymerase ribozyme fitness (log ratio)” value was -3.28.
In the case of G74A U145A, the “polymerase ribozyme fitness (log ratio)” value is reported as -3.36.
With U77G G81A A97G C99G U101C G141U A142G the “polymerase ribozyme fitness (log ratio)” value was ≤ -4.2.
With G74C U90C A91C U104G U130A the “polymerase ribozyme fitness (log ratio)” value was ≤ -4.2.
In the case of C76U G84A U104G U151C, the “polymerase ribozyme fitness (log ratio)” value is reported as ≤ -4.2.
In the case of C76A G152A, the “polymerase ribozyme fitness (log ratio)” value is reported as -2.86.
For C76U G84U C125U G141U, the “polymerase ribozyme fitness (log ratio)” value was -3.46.
For C75U G94C G100U A107G, the “polymerase ribozyme fitness (log ratio)” value was ≤ -4.2.
In the case of G74U G88A A119U C125U, the “polymerase ribozyme fitness (log ratio)” value is reported as -3.95.
In the case of G74C C76A C87U C114U C116U, the “polymerase ribozyme fitness (log ratio)” value is reported as ≤ -4.2.
In the case of G74C C118U, the “polymerase ribozyme fitness (log ratio)” value is reported as -4.02.
In the case of C75G A97U, the “polymerase ribozyme fitness (log ratio)” value is reported as ≤ -4.2.
In the case of C76A G86U, the “polymerase ribozyme fitness (log ratio)” value is reported as -1.75.
In the case of A73U G133U A147C, the “polymerase ribozyme fitness (log ratio)” value is reported as ≤ -4.2.
In the case of G74A U82G G94U G136A, the “polymerase ribozyme fitness (log ratio)” value is reported as ≤ -4.2.
In the case of C76G G92U A121G G143U, the “polymerase ribozyme fitness (log ratio)” value is reported as ≤ -4.2.
In the case of C75G C93U, the “polymerase ribozyme fitness (log ratio)” value is reported as -3.74.
For C76G C87G U90A A121C A122U, the “polymerase ribozyme fitness (log ratio)” value was ≤ -4.2.
With G74A U77A G92U G112U G124A the “polymerase ribozyme fitness (log ratio)” value was ≤ -4.2.
In the case of A73U C93U, the “polymerase ribozyme fitness (log ratio)” value is reported as -1.62.
In the case of A73U C93A, the “polymerase ribozyme fitness (log ratio)” value is reported as -3.39.
In the case of U78A C93G C108U, the “polymerase ribozyme fitness (log ratio)” value is reported as ≤ -4.2.
In the case of C75U A122U, the “polymerase ribozyme fitness (log ratio)” value is reported as -0.205.
In the case of C76G G84U U145C, the “polymerase ribozyme fitness (log ratio)” value is reported as ≤ -4.2.
With C76G U78C C93U C103G A137G the “polymerase ribozyme fitness (log ratio)” value was ≤ -4.2.
For C75U U134A, the “polymerase ribozyme fitness (log ratio)” value was -1.13.
For C75G C96U A120C, the “polymerase ribozyme fitness (log ratio)” value was ≤ -4.2.
With U77A G81A A113U U134G the “polymerase ribozyme fitness (log ratio)” value was ≤ -4.2.
For C76U A91U G92A, the “polymerase ribozyme fitness (log ratio)” value was -4.02.
With C76G A98G A113U U151G the “polymerase ribozyme fitness (log ratio)” value was ≤ -4.2.
In the case of G74C A89U U146C, the “polymerase ribozyme fitness (log ratio)” value is reported as ≤ -4.2.
For U78A C93A G94U, the “polymerase ribozyme fitness (log ratio)” value was -4.16.
In the case of G74A G80A C85A G92A C125A G136C A138G, the “polymerase ribozyme fitness (log ratio)” value is reported as ≤ -4.2.
In the case of C75U U144C, the “polymerase ribozyme fitness (log ratio)” value is reported as -0.607.
With C76U C96U A97G C99U C103G the “polymerase ribozyme fitness (log ratio)” value was ≤ -4.2.
In the case of C75U A89C C95U, the “polymerase ribozyme fitness (log ratio)” value is reported as -0.65.
With C75A C96U A97C the “polymerase ribozyme fitness (log ratio)” value was ≤ -4.2.
With C76A U77G C95U G100U the “polymerase ribozyme fitness (log ratio)” value was -4.15.
With C76G A115G A121U the “polymerase ribozyme fitness (log ratio)” value was ≤ -4.2.
In the case of C76G C87G U102G C108A, the “polymerase ribozyme fitness (log ratio)” value is reported as ≤ -4.2.
With C75G G81U G84C A137U U146C the “polymerase ribozyme fitness (log ratio)” value was ≤ -4.2.
In the case of C75A G80C C105G, the “polymerase ribozyme fitness (log ratio)” value is reported as ≤ -4.2.
In the case of A73U C105G, the “polymerase ribozyme fitness (log ratio)” value is reported as -3.79.
In the case of C76A G92A U134C, the “polymerase ribozyme fitness (log ratio)” value is reported as -3.62.
For U77A C87U A98C C103A C125U U135G, the “polymerase ribozyme fitness (log ratio)” value was ≤ -4.2.
For A73U G100U U104A G126C, the “polymerase ribozyme fitness (log ratio)” value was ≤ -4.2.
For C75G G84A, the “polymerase ribozyme fitness (log ratio)” value was -3.93.
In the case of U77A C85U A91G G133C A142G, the “polymerase ribozyme fitness (log ratio)” value is reported as ≤ -4.2.
With C76A C96A G128C the “polymerase ribozyme fitness (log ratio)” value was ≤ -4.2.
With C76A C95U the “polymerase ribozyme fitness (log ratio)” value was 0.252.
For C76U C87A, the “polymerase ribozyme fitness (log ratio)” value was -3.85.
With C76U C87G the “polymerase ribozyme fitness (log ratio)” value was -3.96.
In the case of C76A C125G U144G, the “polymerase ribozyme fitness (log ratio)” value is reported as -2.22.
For C76U C85G A147C, the “polymerase ribozyme fitness (log ratio)” value was -0.612.
In the case of U77C G84U A106C, the “polymerase ribozyme fitness (log ratio)” value is reported as ≤ -4.2.
For A73U G80A C93U U146G, the “polymerase ribozyme fitness (log ratio)” value was -3.03.
With C76A G83A the “polymerase ribozyme fitness (log ratio)” value was -2.85.
In the case of C75U G92U C93G, the “polymerase ribozyme fitness (log ratio)” value is reported as -1.13.
For C75U C85U G86C, the “polymerase ribozyme fitness (log ratio)” value was -1.49.
With U78G A89U C93G A106G C118G U145C A150U U151G the “polymerase ribozyme fitness (log ratio)” value was ≤ -4.2.
In the case of G74U A97U, the “polymerase ribozyme fitness (log ratio)” value is reported as -4.18.
For C76A C87U G92C A142G, the “polymerase ribozyme fitness (log ratio)” value was ≤ -4.2.
In the case of U77G C103G, the “polymerase ribozyme fitness (log ratio)” value is reported as ≤ -4.2.
With C75U C93G A121U C123U the “polymerase ribozyme fitness (log ratio)” value was -2.27.
For C75U G92U G112C A113U C114G, the “polymerase ribozyme fitness (log ratio)” value was ≤ -4.2.
With C75U A91C A119G G136U the “polymerase ribozyme fitness (log ratio)” value was ≤ -4.2.
For U78G G94U, the “polymerase ribozyme fitness (log ratio)” value was -3.47.
For U78G C87G, the “polymerase ribozyme fitness (log ratio)” value was ≤ -4.2.
With C76U G117A the “polymerase ribozyme fitness (log ratio)” value was 0.649.
For U77C C96A, the “polymerase ribozyme fitness (log ratio)” value was -2.82.
In the case of U78C U146C, the “polymerase ribozyme fitness (log ratio)” value is reported as 0.315.
For A73U G84A U144C, the “polymerase ribozyme fitness (log ratio)” value was -1.83.
With C76G G81A the “polymerase ribozyme fitness (log ratio)” value was ≤ -4.2.
In the case of C76A U104A C125A A142C U144A, the “polymerase ribozyme fitness (log ratio)” value is reported as ≤ -4.2.
With A73U C118U the “polymerase ribozyme fitness (log ratio)” value was -0.982.
In the case of U78C C87U G92A A115U, the “polymerase ribozyme fitness (log ratio)” value is reported as -2.33.
In the case of C76G U127C A150U, the “polymerase ribozyme fitness (log ratio)” value is reported as ≤ -4.2.
For C76U G81A C99U, the “polymerase ribozyme fitness (log ratio)” value was -0.44.
In the case of C75U C96A G128U, the “polymerase ribozyme fitness (log ratio)” value is reported as -3.56.
